According to US20240352111A1 (Regeneron, published 2024):

How the values were obtained:
hArtemin-MMH [1] = target: T1, hArtemin-MMH (human); assay: BLI (Octet HTX), mAb captured on AHC tips, artemin at 15 nM, 25 C
T1 construct: also called hARTN.mmh; hARTN (A108-G220).mmh
T1 chain: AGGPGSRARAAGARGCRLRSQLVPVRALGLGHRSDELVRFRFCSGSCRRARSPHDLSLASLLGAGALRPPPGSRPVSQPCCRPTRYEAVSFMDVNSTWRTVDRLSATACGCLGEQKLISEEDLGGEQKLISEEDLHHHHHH
Method: (§1) The entire experiment was performed at 25° C. in 10 mM HEPES, 150 mM NaCl, 3 mM EDTA, 0.02% NaN3 and 0.05% v/v Surfactant Tween-20, 1 mg/mL BSA, pH7.4 (HBS-EBT) buffer with the plate shaking at a speed of 1000 rpm. Different Artemin mAbs were first captured onto anti-human antibody (AHC) coated Octet biosensor tips (Fortebio Inc, #18-5064) by submerging the biosensor tips for 40 seconds in wells containing 2 μg/mL of Artemin mAb. […] All the Artemin and Artemin mAb samples were prepared in HBS-EBT buffer. The real-time binding response was monitored during the entire course of the experiment and the binding response at the end of every step was recorded.

MfArtemin-MMH [2] = target: T2, MfArtemin-MMH (cynomolgous monkey (Macaca fascicularis)); assay: as above
T2 construct: also called mfARTN.mmh; mfARTN (A108-G22).mmh
T2 chain: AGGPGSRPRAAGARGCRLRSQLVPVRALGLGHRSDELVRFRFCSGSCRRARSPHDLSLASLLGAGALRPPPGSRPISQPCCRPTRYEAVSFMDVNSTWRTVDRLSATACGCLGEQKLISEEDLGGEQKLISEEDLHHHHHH
Method: as §1

hArtemin-MMH [3] = target: T1, hArtemin-MMH; assay: BLI (Octet HTX), mAb captured on AHC tips, artemin at 7.5 nM, 25 C
Method: as §1

MfArtemin-MMH [4] = target: T2, MfArtemin-MMH; assay: as above
Method: as §1

mArtemin-MMH [5] = target: T3, mArtemin-MMH (mouse); assay: as above
T3 construct: also called msArtemin-MMH; msARTN.mmh
T3 chain: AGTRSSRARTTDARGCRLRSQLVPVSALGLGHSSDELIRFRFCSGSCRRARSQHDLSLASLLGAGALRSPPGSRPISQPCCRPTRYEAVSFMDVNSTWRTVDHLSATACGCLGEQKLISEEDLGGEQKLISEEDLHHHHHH
Method: as §1

mArtemin-MMH [6] = target: T3, mArtemin-MMH; assay: SPR Biacore T200, mArtemin-MMH captured by anti-myc mAb, mAb injected, 25 C
Method: The equilibrium dissociation constant (KD) for Artemin binding to each of Artemin monoclonal antibodies (mAbs) H4H33331P, H4H33335P, H4H33336P, and H4H33349P was determined using a real-time surface plasmon resonance Biacore T200 biosensor. All binding studies were performed in 10 mM HEPES, 150 mM NaCl, 3 mM EDTA, and 0.05% v/v Surfactant Tween-20, pH 7.4 (HBS-ET) running buffer at 25° C. The Biacore CM4 sensor chip surface was first derivatized by amine coupling with anti-myc mAb to capture hArtemin-MMH, MfArtemin-MMH, or mArtemin-MMH. Different concentrations of Artemin mAbs (60-2.2 nM, 3-fold serial dilution) prepared in […] running buffer were injected over the Artemin-captured surfaces for 3 min at a flow rate of 50 μL/min and their dissociation in HBS-ET running buffer was monitored for 5 minutes. At the end of each cycle, the Artemin-captured surfaces were regenerated using a 6 sec injection of 20 mM phosphoric acid.
The association rate (kₐ) and dissociation rate (kd) were determined by fitting the real-time binding sensorgrams to a 1:1 binding model with mass transport limitation using Scrubber 2.0c curve-fitting software. Binding dissociation equilibrium constant (KD) and dissociative half-life (t½) were calculated from the kinetic rates as: KD (M)=kd/kₐ, and t_{1/2} (min)=[In2/(60*kd)].

mArtemin-MMH [7] = target: T3, mArtemin-MMH; assay: blocking ELISA, antibody blocks 150 pM msARTN.mmh binding to plate-coated hGFRa3.hFc
Method: (§2) Experiments were carried out using the following procedures. Plates were coated with hGFRa3.hFc at 2 μg/ml in PBS on a 96-well microtiter plate at 4° C. overnight for all three assays. […] In other microtiter plates, a constant amount of either 75 pM hARTN.mmh, 400 pM mfARTN.mmh, or 150 pM msARTN.mmh were separately bound with anti-ARTN antibodies and an irrelevant IgG4 antibody control at a serial dilution series from 0.0017 nM to 100 nM in PBS+0.5% BSA. After a one-hour incubation, the mixture solutions were transferred to microtiter plates coated with hGFRa3.hFc. After one hour of incubation at RT, the wells were washed with PBST, and plate-bound ARTN was detected with an anti-penta-His antibody conjugated with horseradish peroxidase (HRP) (Qiagen). The plates were then developed using TMB substrate solution (BD Biosciences, #555214) according to manufacturer's recommendation and absorbance at 450 nm was measured on a Victor X5 plate reader.
(§3) Binding data were analyzed using a sigmoidal dose-response model within Prism™ software (GraphPad). […] If the calculated IC50 value was below the LLOA, less than LLOA was reported. Percent blocking at 100 nM antibody was calculated based on the background-corrected binding signal observed at the highest antibody concentration tested using the formula listed below and reported for all tested antibodies: […]

MfArtemin-MMH [8] = target: T2, MfArtemin-MMH; assay: blocking ELISA, antibody blocks 400 pM mfARTN.mmh binding to plate-coated hGFRa3.hFc
Method: as §2, §3

MfArtemin-MMH [9] = target: T2, MfArtemin-MMH; assay: blocking ELISA, antibody blocks 400 pM mfARTN.mmh binding to plate-coated hGFRa3.hFc; * below lower limit of assay (1.00E-10 M)
Method: as §2, §3

mArtemin-MMH [10] = target: T3, mArtemin-MMH; assay: blocking ELISA, antibody blocks 150 pM msARTN.mmh binding to plate-coated hGFRa3.hFc; * below lower limit of assay (3.75E-11 M)
Method: as §2, §3

Binder | Artemin Binding Response (nm) (hArtemin-MMH [1]) | Artemin Binding Response (nm) (MfArtemin-MMH [2]) | Artemin Binding Response (nm) (hArtemin-MMH [3]) | Artemin Binding Response (nm) (MfArtemin-MMH [4]) | Artemin Binding Response (nm) (mArtemin-MMH [5]) | 60 nM Artemin mAb Bound (RU) (mArtemin-MMH [6]) | % Blocking with 100 nM Ab (mArtemin-MMH [7]) [%] | IC50 (mArtemin-MMH [7]) [nM] | % Blocking with 100 nM Ab (MfArtemin-MMH [8]) [%] | IC50 (MfArtemin-MMH [9]) [nM] | Kd (mArtemin-MMH [6]) [nM] | koff (mArtemin-MMH [6]) [s⁻¹] | kon (mArtemin-MMH [6]) [M⁻¹ s⁻¹] | t½ (mArtemin-MMH [6]) [h] | IC50 (mArtemin-MMH [10]) [nM] | IC50 (MfArtemin-MMH [8]) [nM]
H4H33336P (antibody, human IgG4 S228P, kappa, V domains shown, Fully human antibody; also called Artemin mAb; anti-ARTN antibody) VH: QVQLVESGGGVVQPGRSLRLSCVASGFILSHYGMHWVRQAPGKGLEWVAVIWFDGTNKYYADSVKGRFTVSRDNSKNTLYMQMNSLRAEDTAVYYCARDPPPARRGNYNGMDVWGQGTTVTVSS VL: DIQMTQSPSSLSASVGDRVTITCRASQDIRNDLGWYQQKPGKAPKRLIFGASSLQSGVPLRFSGSGSGTEFTLTINNLQPEDFATFYCLQDNSYPWTFGQGTKVEIKR | 0.09 | 0.03 | 0.05 | 0.01 | 0 | 3 | 81 | 0.41 | 86 | 0.075 | – | – | – | – | – | –
H4H33349P (antibody, human IgG4 S228P, kappa, V domains shown, Fully human antibody; also called Artemin mAb; anti-ARTN antibody) VH: QVQLVESGGGVVQPGRSLRLSCEASGFTFSDYDLHWVRQAPGKGLEWVAFISNDGSNEYYPKSVKGRFSISRDNSKNTLYLQMNSLRAEDTAVYHCTKERDYYYDSSGSLDYWGQGTLVTVSS VL: DIQMTQSPSSLSASVGDRVTITCRASQTINNYLNWYQQKPGKAPKLLIYTTSGLQSGVPSRFSGRGSGTDFTLAISSLQPEDFATYYCQQSYHSPFTFGPGTKVDIKR | 0.11 | 0.09 | 0.11 | 0.04 | 0.11 | 20 | 88 | – | 88 | 0.0302 | 0.113 | 5.91e-05 | 521000 | 3.25 | 0.00765 | –
H4H33331P (antibody, human IgG4 S228P, kappa, V domains shown, Fully human antibody (human variable and constant domains) from a VELOCIMMUNE mouse; also called Artemin mAb; anti-ARTN antibody) VH: EVQLVESGGDLVQPGGSLKLSCAASGFTFSGSAMHWVRQASGKGLEWVGRIRNKVHRYATEYGASVKGRFTISRDDSKNTAYLQMNSLKIEDTAVYYCVVVVPGSIEAFDIWGQGTMVTVSS VL: DIQMTQSPSSLSASVGDRVTITCRASQSISTYLNWYQQKPGKAPNLLIYAASTLESGVPSRFSGSGSGTDFTLTISSLQPEDFEIYYCQQSYNIPWTFGQGTKVEIKR | 0.11 | 0.03 | 0.07 | 0.01 | 0.07 | 7 | 83 | – | 90 | – | 0.346 | 5.4e-05 | 156000 | 3.57 | < 0.0375 | 0.105
